According to patent US20250206828A1, “ANTI-ADENOSINE RECEPTOR (A2aR) ANTIBODIES AND THE USE THEREOF” (Adept Therapeutics Inc., priority 2022, published 2025):

Key:
[1] = test system: human PBMCs (CD4 and CD8 T cells); test: Restoration of CD25 and CD69 activation markers on NECA-suppressed CD4 and CD8 T cells; assay type: cell-based; conditions: test substance 2 μg/ml
Protocol: (§1) Two hundred thousand (2×10^5) human peripheral blood mononuclear cells (PBMCs) human PBMC in complete IMDM medium were aliquoted into each well in a 96-well plate and the cells in the 96-well plate were pre-incubated with antibodies or small molecule inhibitors at indicated concentration for 90 minutes, followed by addition of T cell activator anti-CD3/28 dynabeads (Gibco, Cat #11132D) at ratio of 1:4 (Beads: PBMC, v/v) and NECA (DiscoverX, Cat #92-1191, final concentration […]). Cells were cultured in an incubator at 37° C., 5% CO2 for 24 hours. Cells were then collected and stimulated with anti-CD3/28 dynabeads in the presence of GolgiPlug™ Protein Transport Inhibitor (BD Biosciences, Cat #555028) according to manufacturer's manual for 4 hours. Thereafter, cells were incubated with human TruStain FcX block (Biolegend, Cat #422302) and True-Stain monocyte blocker (Biolegend, Cat #426103) for 15 minutes according the manufacturer's manual, and cells were then stained with surface markers PE-anti-CD4 (Biolegend, Cat #300550), PerCP-cy5.5-anti-CD8 (Biolegend, Cat #301032), APC/cy7-anti-CD3 (Biolegend, Cat #300426) and PE/cy7-anti-CD56 (Biolegend, Cat #362509), PE/cy7-anti-CD56 (Biolegend, Cat #362509), BV711-anti-CD25 (Biolegend, Cat #302636) and BV605-anti-CD69 (Biolegend, Cat #31938 After wash with FACS buffer, cells were stained with BV421-anti-IFN-γ (BD Bioscience, Cat #562988) and APC anti-IL-2 (BD Bioscience, cat #551383) using intracellular cytokine staining kit (BD Biosciences, cat #555028) following manufacturer's instruction. Stained samples were analyzed on FACSAria III machine. Data were analyzed using Flowjo software.

[2] = test system: human PBMCs (CD4 T, CD8 T, NK cells); test: Restoration of IFN-γ and IL-2 production of NECA-suppressed T cells and NK cells (intracellular cytokine staining); assay type: cell-based; conditions: NECA; test substance 2 μg/ml
Protocol: as §1

[3] = target: human adenosine A2A receptor (A2aR) (human, UniProt P29274 1-412); test: flow cytometry, HEK293-hA2aR cells, supernatant 1 ug/ml
human A2aR = human A2aR (Homo sapiens, UniProt P29274); test: Binding of humanized anti-A2aR antibodies in transfected Expi293F cell supernatant to human A2aR on HEK293 cells (FACS, MFI); conditions: supernatant with 1 μg/ml antibody; HEK293 overexpressing human A2aR; heavy chain (row) x light chain
Protocol: Briefly, HEK293 cells that stably overexpress human A2aR (HEK-hA2aR OCL, BPS Bioscience, Cat. 79381) were collected from fresh culture. Cells were then resuspended in FACS buffer (1×DPBS/1% FBS) at 10^6/ml concentration. One hundred microliters (100 μl) of cells were aliquoted into each well of a 96 well plates. After centrifugation, cell pellets in each well were then resuspended with 100 μl normalized supernatant samples containing 1 μg/ml humanized anti-A2aR monoclonal antibody variants collected from transfected Expi293 cell culture. The supernatants were mixed with the cells and incubated on ice for 1 hours. After washing the mixtures of the supernatants containing expressed antibodies and the A2aR-expressing cells with FACS buffer, one hundred microliters (100 μl) of 1:400 diluted PE-conjugated anti-human Fc secondary antibody (Jackson Immuno Research, Cat. 109-116-098) was added to each well followed by an incubation for 30 minutes on ice. After washes with FACS buffer, stained cells were resuspended in 150 μl of 7-AAD (Biolegend, Cat. 420404) diluted 1:100 in 1×DPBS buffer and incubate for 5 minutes in the dark at room temperature before FACS analysis. The mean fluorescence intensity (MFI) was obtained using Guava 11HT or 5HT (Luminex). Data was analyzed using Flowjo software.
As shown in Tables 22-24, exemplary humanized anti-A2aR antibodies bind to A2aR expressed on a cell surface. A greater MFI value means stronger binding of the exemplary antibody to A2aR expressed on a cell surface.

Chain of human adenosine A2A receptor (A2aR) (P29274 whole entry): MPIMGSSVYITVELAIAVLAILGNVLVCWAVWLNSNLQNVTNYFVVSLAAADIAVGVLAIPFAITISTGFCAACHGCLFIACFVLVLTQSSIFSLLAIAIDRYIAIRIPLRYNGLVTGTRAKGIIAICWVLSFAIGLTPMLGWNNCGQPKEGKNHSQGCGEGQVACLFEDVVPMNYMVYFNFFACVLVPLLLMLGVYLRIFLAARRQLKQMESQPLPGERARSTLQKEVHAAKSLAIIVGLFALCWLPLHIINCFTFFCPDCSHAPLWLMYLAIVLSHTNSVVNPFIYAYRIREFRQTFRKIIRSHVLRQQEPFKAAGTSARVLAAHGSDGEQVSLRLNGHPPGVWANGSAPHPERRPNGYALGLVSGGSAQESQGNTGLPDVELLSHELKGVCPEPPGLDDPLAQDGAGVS
Chain of human A2aR (P29274 whole entry): as above

`Cc1cc(-c2nnc(N)nc2-c2ccc(F)cc2)cc(Cl)n1` [AZD4635] was tested, and the “% of cells CD25+, CD4 T cells” value [1] was 48.8%, the “% of cells CD25+, CD8 T cells” value [1] was 26% and the “% of cells CD69+, CD4 T cells” value [1] was 48.1%. The “% of cells CD69+, CD8 T cells” value [1] was 49.1%, the “% of cells IFNγ+, CD4 T cells” value [2] was 3.41% and the “% of cells IFNγ+, CD8 T cells” value [2] was 13.3%. The “% of cells IFNγ+, NK cells” value [2] was 8.91%, the “% of cells IL-2+, CD4 T cells” value [2] was 10.4% and the “% of cells IL-2+, CD8 T cells” value [2] was 2.57%.

B1: Hu3F8-H4/Hu3F8-L1 (antibody, human IgG1, V domains shown)
VH: EVQLVQSGAEVKKPGASVKVSCKASGFTFTRYWMNWVRQAPGQGLEWIGRIDPSDSETHYNHKFWGRATLTVDKSTSTVYMELSSLRSEDTAVYYCLRSLYGKGDYWGQGTTVTVSS
VL: DVVMTQSPLSLPVTLGQPASISCRSSQSIVHSNGNTYLEWFQQRPGQSPRRLIYKVSNRFSGVPDRFSGSGSGTDFTLKISRVEAEDVGVYYCYQGSHVPLTFGGGTKVEIK
For B1, the MFI [3] was 110 MFI.

B2: Hu1B5-H4/Hu1B5-L1 (antibody, human IgG1, V domains shown)
VH: EVQLVQSGAEVKKPGASVKVSCKTSGFTFTRFWMNWVRQAPGQGLEWIGRIDPYDSETQYNHKFWDRATLTVDKSSSTVYMELSSLRSEDTAVYYCGRSLYGKGDYWGQGTTVTVSS
VL: DVVMTQSPLSLPVTLGQPASISCRSSQSIVHSNGNTYLEWFQQRPGQSPRRLIYKVSNRFSGVPDRFSGSGSGTDFTLKISRVEAEDVGVYYCFQGSHVPLTFGGGTKVEIK
B2 gave an MFI [3] of 182 MFI.

B3: Hu3F8-H3/Hu3F8-L2: humanized anti-A2aR IgG1 FES antibody; HCVR SEQ ID NO:66, LCVR SEQ ID NO:85 (antibody, V domains shown)
VH: EVQLVQSGAEVKKPGASVKVSCKASGFTFTRYWMNWVRQAPGQGLEWIGRIDPSDSETHYNHKFWGRATLTVDTSTSTVYMELSSLRSEDTAVYYCLRSLYGKGDYWGQGTTVTVSS
VL: DVVMTQSPLSLPVTLGQPASISCRSSQSIVHSNGNTYLEWYQQRPGQSPRRLIYKVSNRFSGVPDRFSGSGSGTDFTLKISRVEAEDVGVYYCYQGSHVPLTFGGGTKVEIK
B3 was tested, and the “MFI, binding to human A2aR on cell surface (3F8-12E9 derived)” value (human A2aR) was 93.

B4: Hu1B5-H6/Hu1B5-L1 (antibody, human IgG1, V domains shown)
VH: EVQLVQSGAEVKKPGESLRISCKTSGFTFTRFWMNWVRQMPGKGLEWIGRIDPYDSETQYNHKFWDHATLSVDKSSSTVYLQWSSLKASDTAMYYCGRSLYGKGDYWGQGTTVTVSS
VL: DVVMTQSPLSLPVTLGQPASISCRSSQSIVHSNGNTYLEWFQQRPGQSPRRLIYKVSNRFSGVPDRFSGSGSGTDFTLKISRVEAEDVGVYYCFQGSHVPLTFGGGTKVEIK
With B4 the MFI [3] was 178 MFI.

B5: Hu1B5-H3/Hu1B5-L1 (antibody, human IgG1, V domains shown)
VH: EVQLVQSGAEVKKPGASVKVSCKTSGFTFTRFWMNWVRQAPGQGLEWIGRIDPYDSETQYNHKFWDRATLTVDTSSSTVYMELSSLRSEDTAVYYCGRSLYGKGDYWGQGTTVTVSS
VL: DVVMTQSPLSLPVTLGQPASISCRSSQSIVHSNGNTYLEWFQQRPGQSPRRLIYKVSNRFSGVPDRFSGSGSGTDFTLKISRVEAEDVGVYYCFQGSHVPLTFGGGTKVEIK
B5 showed an MFI [3] of 152 MFI.

B6: Hu1B5-H2.1/Hu1B5-L1 (antibody, human IgG1, V domains shown)
VH: EVQLVQSGAEVKKPGASVKVSCKTSGFTFTRFWMNWVRQAPGQGLEWIGRIDPYDSETQYNHKFWDRVTMTVDTSTSTVYMELSSLRSEDTAVYYCGRSLYGKGDYWGQGTTVTVSS
VL: DVVMTQSPLSLPVTLGQPASISCRSSQSIVHSNGNTYLEWFQQRPGQSPRRLIYKVSNRFSGVPDRFSGSGSGTDFTLKISRVEAEDVGVYYCFQGSHVPLTFGGGTKVEIK
Molecule B6 has an MFI [3] of 145 MFI.

B7: Hu3F6-H2/Hu3F6-L2 (antibody, human IgG1, V domains shown)
VH: EVQLVQSGAEVKKPGASVKVSCKTSGFAFTSYWMNWVRQAPGQGLEWMGRIDPSDSEAHYHHKFWGRVTMTVDTSTSTVYMELSSLRSEDTAVYYCLRSLYGKGDYWGHGTTVTVSS
VL: DVVMTQSPLSLPVTLGQPASISCRSSQSLVHRNGNTYLEWYQQRPGQSPRRLIYKVSNRFSGVPDRFSGSGSGTDFTLKISRVEAEDVGVYYCYQGSHVPLTFGGGTKVEIK
For B7, the MFI [3] was 146 MFI.

B8: Hu1B5-H5/Hu1B5-L1 (antibody, human IgG1, V domains shown)
VH: EVQLVQSGAEVKKPGASVKVSCKTSGFTFTRFWMNWVRQAPGQGLEWIGRIDPYDSETQYAHKFWDRATLTVDKSSSTVYMELSSLRSEDTAVYYCGRSLYGKGDYWGQGTTVTVSS
VL: DVVMTQSPLSLPVTLGQPASISCRSSQSIVHSNGNTYLEWFQQRPGQSPRRLIYKVSNRFSGVPDRFSGSGSGTDFTLKISRVEAEDVGVYYCFQGSHVPLTFGGGTKVEIK
B8 showed an MFI [3] of 82 MFI.

B9: Hu1B5-H2/Hu1B5-L1 (antibody, human IgG1, V domains shown)
VH: EVQLVQSGAEVKKPGASVKVSCKTSGFTFTRFWMNWVRQAPGQGLEWMGRIDPYDSETQYNHKFWDRVTMTVDTSTSTVYMELSSLRSEDTAVYYCGRSLYGKGDYWGQGTTVTVSS
VL: DVVMTQSPLSLPVTLGQPASISCRSSQSIVHSNGNTYLEWFQQRPGQSPRRLIYKVSNRFSGVPDRFSGSGSGTDFTLKISRVEAEDVGVYYCFQGSHVPLTFGGGTKVEIK
Work on B9 yielded an MFI [3] of 165 MFI.

B10: Hu3F6-H3/Hu3F6-L2 (antibody, human IgG1, V domains shown)
VH: EVQLVQSGAEVKKPGASVKVSCKTSGFAFTSYWMNWVRQAPGQGLEWIGRIDPSDSEAHYHHKFWGRATLTVDTSSSTVYMELSSLRSEDTAVYYCLRSLYGKGDYWGHGTTVTVSS
VL: DVVMTQSPLSLPVTLGQPASISCRSSQSLVHRNGNTYLEWYQQRPGQSPRRLIYKVSNRFSGVPDRFSGSGSGTDFTLKISRVEAEDVGVYYCYQGSHVPLTFGGGTKVEIK
With B10 the MFI [3] was 200 MFI.

B11: Hu3F8-H6/Hu3F8-L1 (antibody, human IgG1, V domains shown)
VH: EVQLVQSGAEVKKPGESLRISCKASGFTFTRYWMNWVRQMPGKGLEWIGRIDPSDSETHYNHKFWGHATLSVDKSSSTVYLQWSSLKASDTAMYYCLRSLYGKGDYWGQGTTVTVSS
VL: DVVMTQSPLSLPVTLGQPASISCRSSQSIVHSNGNTYLEWFQQRPGQSPRRLIYKVSNRFSGVPDRFSGSGSGTDFTLKISRVEAEDVGVYYCYQGSHVPLTFGGGTKVEIK
With B11 the MFI [3] was 158 MFI.

B12: Hu1B5-H1/Hu1B5-L2 (antibody, human IgG1, V domains shown)
VH: QVQLVQSGAEVKKPGASVKVSCKASGFTFTRFWMNWVRQAPGQGLEWMGRIDPYDSETQYNHKFWDRVTMTRDTSTSTVYMELSSLRSEDTAVYYCGRSLYGKGDYWGQGTTVTVSS
VL: DVVMTQSPLSLPVTLGQPASISCRSSQSIVHSNGNTYLEWYQQRPGQSPRRLIYKVSNRFSGVPDRFSGSGSGTDFTLKISRVEAEDVGVYYCFQGSHVPLTFGGGTKVEIK
Molecule B12 has an MFI [3] of 62 MFI.

B13: Hu3F8-H4/Hu3F8-L2 (antibody, human IgG1, V domains shown)
VH: EVQLVQSGAEVKKPGASVKVSCKASGFTFTRYWMNWVRQAPGQGLEWIGRIDPSDSETHYNHKFWGRATLTVDKSTSTVYMELSSLRSEDTAVYYCLRSLYGKGDYWGQGTTVTVSS
VL: DVVMTQSPLSLPVTLGQPASISCRSSQSIVHSNGNTYLEWYQQRPGQSPRRLIYKVSNRFSGVPDRFSGSGSGTDFTLKISRVEAEDVGVYYCYQGSHVPLTFGGGTKVEIK
Work on B13 yielded an MFI [3] of 131 MFI.

B14: Hu3F8-H5/Hu3F8-L1 (antibody, human IgG1, V domains shown)
VH: EVQLVQSGAEVKKPGASVKVSCKASGFTFTRYWMNWVRQAPGQGLEWIGRIDPSDSETHYNAKFWGRATLTVDKSTSTVYMELSSLRSEDTAVYYCLRSLYGKGDYWGQGTTVTVSS
VL: DVVMTQSPLSLPVTLGQPASISCRSSQSIVHSNGNTYLEWFQQRPGQSPRRLIYKVSNRFSGVPDRFSGSGSGTDFTLKISRVEAEDVGVYYCYQGSHVPLTFGGGTKVEIK
B14 was tested, and the MFI [3] was 58 MFI.

B15: Hu3F8-H5/Hu3F8-L2 (antibody, human IgG1, V domains shown)
VH: EVQLVQSGAEVKKPGASVKVSCKASGFTFTRYWMNWVRQAPGQGLEWIGRIDPSDSETHYNAKFWGRATLTVDKSTSTVYMELSSLRSEDTAVYYCLRSLYGKGDYWGQGTTVTVSS
VL: DVVMTQSPLSLPVTLGQPASISCRSSQSIVHSNGNTYLEWYQQRPGQSPRRLIYKVSNRFSGVPDRFSGSGSGTDFTLKISRVEAEDVGVYYCYQGSHVPLTFGGGTKVEIK
B15 gave an MFI [3] of 147 MFI.
